The text below walks through data of US20090282582A1, “ENVIRONMENTAL STRESS RESPONSIVE PROMOTER AND METHOD OF TISSUE-SPECIFIC GENE EXPRESSION USING THE SAME” (RIKEN, priority 2006, published 2009).

Data set [1] concerns Arabidopsis thaliana (columbia ecotype) plant body. In words: full-length cDNA microarray analysis of gene expression levels after environmental stress application. To be noted: in vivo. On the procedure: In this example, the gene expression levels at the time of application of various types of environmental stresses were analyzed using microarrays. Specifically, the microarrays described in Seki et al., “Monitoring the expression profiles of 7000 Arabidopsis genes under drought, cold, and high-salinity stresses using a full-length cDNA microarray,” Plant J. 31: 279-292, 2002, were used, and analysis was carried out in accordance with the method similar to the method described therein. Various types of environmental stresses were applied to a plant body under the following conditions. Specifically, low-temperature stress application was carried out by introducing a plate containing a plant body into a low-temperature chamber (4° C.). Dehydration stress application was carried out by capturing the plant body with forceps while refraining from damaging the plant body, roughly removing moisture from the plant body on a Kim Towel, placing the plant body on another plate, placing the plate in a clean bench while leaving the lid open, letting it stand for 2 hours, and then closing the lid. Salt stress application was carried out by dispensing a mixture of MS medium (containing 1% sucrose, 0.1% agar, and 1 mM luciferin) with 250 mM NaCl to the roots of the plant bodies (200 μl per plant body) using a Pipetman. ABA stress application was carried out by dispensing a mixture of MS medium (containing 1% sucrose, 0.1% agar, and 1 mM luciferin) with 100 μM ABA to the roots of the plant bodies (200 μl per plant body) using a Pipetman. As a plant body to which environmental stress is to be applied, Arabidopsis thaliana (columbia ecotype), which had been cultivated on a germination medium containing Murashige and Skoog Salt, 3% sucrose, and […] for 3 weeks, was used. Cultivation conditions were determined so as to maintain the temperature in the chamber at 22° C. with a 16-hour light period and an 8-hour dark period. Total RNA was extracted from plant bodies after environmental stress application or from plant bodies to which no environmental stress had been applied using the TRIZOL Reagent (Life Technologies), and mRNA was extracted using the mRNA isolation kit (Militenyi Biotec Auburn). In accordance with the method described in the above article, mRNA samples were reversely transcribed in the presence of Cy3 dUTP or Cy5 dUTP (Amersham Pharmacia). Microarray analysis was carried out using cDNAs obtained via reverse transcription. Data obtained via microarray analysis were analyzed using the Quantarray Version 2.0 (GSI Lumonics).

Data set [2] concerns transgenic Arabidopsis thaliana plant body (luciferase reporter gene). In words: luciferase assay of promoter::LUC transgenic plants after environmental stress application. The class given is in vivo. To be noted: for Tissue allowing specific induction: summary over stress types. How it is done:
Specifically, promoter regions were isolated from these genes, transgenic plants in which luciferase reporter genes were to be expressed under the control of such promoters were prepared, and tissue specificity of the promoters was inspected via luciferase assay.
In this example, DNA fragments containing promoter regions of the genes identified in Example 1 were recovered via PCR.
The nucleotide sequences of the amplified DNA fragments were determined in accordance with a conventional technique to confirm that mutagenesis, such as substitution or deletion, was not introduced thereinto. After the absence of mutagenesis was confirmed, the recovered DNA fragments were introduced into the vector for promoter analysis (i.e., a vector prepared by introducing the Gateway recombinant sequence (tradename: Gateway Vector Conversion System, Invitrogen) and the luciferase reporter gene into the pGreen vector (Plant Molecular Biology 42: 819-832, 2000)) using the Gateway recombination system to construct a recombinant vector.
The recombinant vector prepared in (1) above was introduced into a plant via Agrobacterium infection. When a gene is introduced via Agrobacterium infection, a process of infecting a plant with Agrobacterium containing a plasmid comprising the target gene construct is necessary. This process was carried out via vacuum infiltration. Specifically, a plant body of Arabidopsis thaliana that had been grown in soil comprising vermiculite and an equivalent amount of pearlite was soaked in a culture solution of Agrobacterium containing the recombinant vector prepared in (1). The resultant was placed in a desiccator, suctioned with a vacuum pump to 65 to 70 mmHg, and then allowed to stand at room temperature for 5 to 10 minutes. The pot was transferred onto a tray, covered with a wrap, and kept moistened. The wrap was removed on the following day, the plant was allowed to grow in that state, and seeds were then harvested.
Subsequently, seeds were sown on MS agar medium to which antibiotic hygromycin has been added in order to select an individual having the recombinant vector prepared in (1). Arabidopsis thaliana that had been grown in this medium was transferred to a pot and allowed to grow therein. Thus, seeds of transgenic plants to which the recombinant vector prepared in (1) has been introduced were obtained.
The seeds of the transgenic plant lineage prepared in (2) were sowed on MS agar medium. The plant body 10 days after sowing was used for luciferase assay.
At the outset, 1 mM luciferin (containing 0.01% Triton-X) was sprayed over the entire plant body 5 times. After the plant body was allowed to stand in the dark for 5 minutes, luciferase luminescence was assayed using ARGUS (assay after treatment for 0 hours). Subsequently, various types of environmental stresses were applied (see below). Low-temperature stress application was carried out by introducing a plate containing a plant body into a low-temperature chamber (4° C.). Dehydration stress application was carried out by capturing the plant body with forceps while refraining from damaging the plant body, roughly removing moisture from the plant body on a Kim Towel, placing the plant body on another plate, placing the plate in a clean bench while leaving the lid open, letting it stand for 2 hours, and then closing the lid. Salt stress application was carried out by dispensing a mixture of MS medium (containing 1% sucrose, 0.1% agar, and 1 mM luciferin) with 250 mM NaCl to the roots of the plant bodies (200 μl per plant body) using a Pipetman. ABA stress application was carried out by dispensing a mixture of MS medium (containing 1% sucrose, 0.1% agar, and 1 mM luciferin) with 100 μM ABA to the roots of the plant bodies (200 μl per plant body) using a Pipetman.
Luciferase luminescence was assayed 2, 5, and 10 hours after the above various types of environmental stresses had been applied using the ARGUS system (Hamamatsu Photonics). […]

B1: Promoter of RAFL05-17-B13: environmental stress responsive promoter DNA, SEQ ID NO: 1, upstream of At1g01470 (LEA protein) (nucleic acid, listed as Arabidopsis thaliana)
DNA: CCGCCAACTACCAACACCGACATATGTGCTTTCGGCAGTTTTGATATCATTCCAAAATTTCAATTATTATTTATCAAATTTATTTTCTTGGTAAAAGTTTAATTAATTTCAATTATTTGAATGTCTTAATTCACTGATTACAAATTATATATGTAATATATACATAACAATTTCGTTCGTGGAGTGTTATTATACTCCTTAAGCGAATCTGTATATTTTAAATAAAATTTTGATTTATGCACACGTACATGTTCAATTGAAACGTTTTCCCTAACTATAGATGCCAATAAATAATAAGTTGATTTTTAAAATGTACAAAACAAAAGGTACCGTTTTGTAAAATTTTGCAACCAAAAAGTACAATCGGCCGTTGAAAATCGTGGAACCAAACACTAATTAAAGAGAAGTGTGAATATAATCTAGTGTTTGCGGATTTATATTATAAAATTTGTGTATCACTAAAATGTCAAAGCATGCTTTGACTGGTCAATAAGTCAAATTAACTAACAAACCATGCGAGGCGTAGGTTTGACTTCTTAACATAAATGCTGACTCAGTTTTTCCATTCCGCAGCTGTCGACTAATTGGACACGCTTCTTCCAATCCCTTTCCACTAATCATCCATCAACACGTGACATGCCTACAGTGCACGACTTCACAGTGATCATGTCAAAGTTTTGTTTTTAAGAGAAGAAGATTCACGACTTCACAGTGATCATAGTCCAGTTACAAATTTGAATGGGCTTATGGCCTGTGGCCCATTTAAGTTTGACCTTAATATCCATCAGAAACCCATACCAATACGGGTCATAAGTGCATTGTCCATATAGTGTACCGCAATGCATGGGAGTACTACTACATTCCACCGACGTGCATATGGGGGGACATGGTCGGTCCATTAATCCCTTGCGCATCTTATTCCTTACGCGAATACTTTTCCCTCTTTTAGTTTTGTATAATACTTTCCATTTTTTTGGTATTAAATTTATCGTGTGACTATCTAAAAAGGTATTTAATTATCTAGTTTAGCTATAACTGCAAACAAAATATCTATTTTCATGAATGATATATTTTTGAAATAAAATATTGTTGTCATGTAACGAAAAAATCAAAAATCAAGCAGAAGACACGTATAACCCACGCTTTCACTCTCACTCGTGGAAAACCCTCACACGTACACAAACCATTATAAAATTTAATCCATTTACATCGACCGACTTCATAAGAACATCGTAATCCCATCCGTTTATATATATATTCCAAGTTAAACTTCATATCATACACACAAACCTAAAACACCGAAACAAAAACAAAGAGATTTAAACAAGAAGAGTTATT
Regarding B1, the “Environmental stress type to which the promoter responds” value in data set [1] was “Dehydration and salt”. In addition, the “Tissue in which specific induction of expression is realized” value (“Tissue in which specific induction” for short) in data set [2] (ABA stress (100 μM ABA)) is “Stem and leaf tissue (weak)”; in data set [2] (ABA stress (100 μM ABA), listed as promoter of RAFL05-17-B13), “weak gene expression in stem and leaf tissue”; in data set [2] (Dehydration stress), “Stem and leaf tissue and root tissue”; in data set [2] (Dehydration stress, listed as promoter of RAFL05-17-B13), “stem and leaf tissue and root tissue”; in data set [2] (Low temperature stress (4° C.)), “Stem and leaf tissue”; in data set [2] (Low temperature stress (4° C.), listed as promoter of RAFL05-17-B13), “stem and leaf tissue”. Besides, the “Tissue in which specific induction” value was “Stem and leaf tissue” in data set [2] (Salt stress (250 mM NaCl)); “stem and leaf tissue” in data set [2] (Salt stress (250 mM NaCl), listed as promoter of RAFL05-17-B13). Further, the “Tissue allowing specific induction” value in data set [2] was “Stem and leaf tissue and root tissue”.

B2: Promoter of RAFL05-18-I12: environmental stress responsive promoter DNA, SEQ ID NO: 2, upstream of At2g47770 (homolog of benzodiazepine receptor) (nucleic acid, listed as Arabidopsis thaliana)
DNA: ACCATGGCACCTGAAATACGTAAGGATACAAGAAGAGATATCATCACTGAATTCACTAAAATCACTCCCATCATAAACAGACAAATCAAAACCAAAATATTGTTCATTAACATCGTAAATGGACAACGCTTGACAACGTCTACAAATACTTGATGAAAAGAGATAAGAAATAAGTCTTCATTTATACCACATCAGTCTTCACGTAGATGATCAAGACGATCCCCAGATTGACAATGTAGAGAACACCAAAAAGAATCTGCAAAATGTAAGAGAGTAGAATTGAGACAAATGAAGCGATGGATGGATCAAATTCCGCAGCTAATCCAAAGATAGGAGATTCAAAGAGAGGGAATTGCAAGCACCTGAGCAGGGTAGACTTCCCCTCCAGTTAAGTTCTGCACTGCAGAGTAAACATAGAGGAAACCTGCTGGATAAACCAATGGCCCTGTATCGCCTTTCAAGTTCCCATAGTCTCTCTCTCCCCCGAGAAACCCACTAACCTGCCCCAATTAGATAAATTTCACTTAAAGACTACTAGTTTACTTTGAAGAAACCACAGTTGACCATTGACACTTACCTGTGACATGTAAGCATCCCAATCGATCTTCGTGTCTGTTAAAGGCAAATGACGAAATTTGGTTTAAAACCTATGCAAATGCACATTTCGAGGGATACGCAAGCAAAAAAAAAAAGGAGGTAAATAGCTCTCACATGGAACATAGGCGATAATAAGTGCGACTAGGATTGCATCAGCAAGAATTAGCGCGAATGCGAATGGAACTGCAGGTTTTTTGAATAGATCGGATCGATTCGTCTCCTTCCCCAGCCGACGGCTACGAGAAGCTCTCAAACTCGCCGGTGATGAGGCGCCCGCCATGAAAACAGAGCAAATCGCATCAGCGTCTAGCCAACGCCGCGTAACAGACAACTACTTCCATATTACTACTCTTCTAATTAGCCCAAATTAAATGAGCCTATTGGGCTTCTTGTCTTAGTCGGTGTAGAGCCCAATTGTTGTTTTATTTTTTAATAATGCAAAAGTATTAAGCGATAAATAAATAAGCATCGCAATCGTCCCAAAACTGTGTGTATGCATCAGACATGAGCATATAGAGTAAGCACGTGTCCACACTTTTTCACAAAGTTATCTAAAAACAAAAAACAATTAATTAGCATTCGACGTGTACATATCACTCGCCACGTGTACAAGAGCCTTGGCCTTTTTGCTTCTTCTTCTTGTCTATTAATATCATCTCCTGATTATACTCTCTTTTGACCAAGCTGCTTCTTCTCCATCTATCCAACATCTCAAATCTCAGTAATCTTGTTCCTTCGATTCTGTTTTGGACGTTTGTA
For B2, in data set [1], the “Environmental stress type to which the promoter responds” value is “Dehydration and salt”. The “activity to induce gene expression” value in data set [2] (5 hours after dehydration stress application) is recorded as “strong activity”. Moreover, the “Tissue in which specific induction” value in data set [2] (Dehydration stress) is “Stem and leaf tissue and root tissue”; in data set [2] (Dehydration stress, listed as promoter of RAFL05-18-I12), “stem and leaf tissue and root tissue”. Also, the “Tissue allowing specific induction” value in data set [2] was “Stem and leaf tissue and root tissue”.
